T1: MERS-CoV spike antigens (bead panel) (MERS-CoV, UniProt K9N5Q8 18-1296)
T1 sequence: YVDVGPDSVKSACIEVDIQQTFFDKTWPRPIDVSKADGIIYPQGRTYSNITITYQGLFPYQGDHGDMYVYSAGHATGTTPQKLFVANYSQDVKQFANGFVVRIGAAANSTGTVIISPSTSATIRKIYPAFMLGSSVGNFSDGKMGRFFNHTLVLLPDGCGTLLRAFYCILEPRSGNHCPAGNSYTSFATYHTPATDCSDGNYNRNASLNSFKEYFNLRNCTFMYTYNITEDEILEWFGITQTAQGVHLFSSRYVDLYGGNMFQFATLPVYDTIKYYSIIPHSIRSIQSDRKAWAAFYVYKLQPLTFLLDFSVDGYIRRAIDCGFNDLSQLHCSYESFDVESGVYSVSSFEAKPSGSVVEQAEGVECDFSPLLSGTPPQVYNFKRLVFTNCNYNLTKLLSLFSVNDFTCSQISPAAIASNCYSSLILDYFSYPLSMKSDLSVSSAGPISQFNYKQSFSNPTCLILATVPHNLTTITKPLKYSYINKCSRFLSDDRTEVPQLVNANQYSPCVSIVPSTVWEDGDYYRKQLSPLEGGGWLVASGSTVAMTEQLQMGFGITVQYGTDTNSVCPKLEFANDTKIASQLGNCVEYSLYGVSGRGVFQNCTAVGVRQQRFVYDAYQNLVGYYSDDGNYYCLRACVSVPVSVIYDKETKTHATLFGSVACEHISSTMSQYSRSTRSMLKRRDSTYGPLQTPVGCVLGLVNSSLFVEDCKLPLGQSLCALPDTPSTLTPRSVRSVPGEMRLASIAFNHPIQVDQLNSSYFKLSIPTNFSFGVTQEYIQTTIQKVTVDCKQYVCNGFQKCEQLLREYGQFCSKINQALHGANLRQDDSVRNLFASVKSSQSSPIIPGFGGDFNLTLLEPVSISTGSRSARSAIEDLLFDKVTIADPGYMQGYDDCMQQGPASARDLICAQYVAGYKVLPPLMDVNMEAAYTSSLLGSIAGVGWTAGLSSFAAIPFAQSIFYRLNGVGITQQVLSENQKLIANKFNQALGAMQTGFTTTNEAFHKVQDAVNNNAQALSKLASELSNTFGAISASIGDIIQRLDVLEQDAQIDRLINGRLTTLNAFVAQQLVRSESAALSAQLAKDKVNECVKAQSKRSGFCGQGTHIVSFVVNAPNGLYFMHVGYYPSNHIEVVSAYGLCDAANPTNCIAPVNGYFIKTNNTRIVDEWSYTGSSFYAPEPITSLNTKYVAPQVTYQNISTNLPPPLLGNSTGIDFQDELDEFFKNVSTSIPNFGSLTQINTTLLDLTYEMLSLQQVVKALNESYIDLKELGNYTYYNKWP


Experiments:
SARS-CoV-2 NTD (1-290) = biological target: T2, SARS-CoV-2 NTD (1-290) (SARS-CoV-2, UniProt P0DTC2 14-290); assay: BLI, 1:1 model
T2 construct: range 1-290

[1] = biological target: T1, MERS-CoV spike antigens (bead panel); assay: multiplex bead assay

Row | Binder | Kd (SARS-CoV-2 NTD (1-290)) [pM] | binding result [1]
1 | COV_2035 (antibody, V domains shown, human IgG1) VH: QVQLVQSGAEVKKPGASVKVSCKVSGYTLPELSIHWVRQAPGKGLEWLGGFDPEDGKIIYAQKFQGRVTMTEDTSTDTAYMELSSLRSEDTAVYYCATSPAVVERGWFDPWGQGTLVTVSS VL: QSALTQPPSASGSPGQSVTISCTGTSSDVGGYNYVSWYQQHPGKAPKLMIYEVSKRPSGVPDRFSGSKSGNMASLTVSGLQAEDEANYYCSSYAGSKRVFGGGTKLTVL | < 1 | 
2 | COV_3069 (antibody, V domains shown, human IgG1) VH: EVQLVESGGGLVKPGGSLRLSCAASGFTFGSYTMNWVRQAPGKGLEWVSSIDTTSSSIYYADSLKGRFAISRDSAKNSLYLQMNRLRAEDTAVYYCARGNGHSYDSSGYHYGMYFDYWGQGTLVTVSS VL: DIQMTQSPSTLSASVGDRVTITCRASQSISRWLAWYQQKPGKAPKLLIYEVSSLENGVPSRFSGSRSGTEFTLTISSLQPDDFAIYYCQQYNTYSRTFGQGTKVEIKR |  | no binding
3 | COV_2169 (antibody, V domains shown, human IgG1) VH: EVQLVESGGGVVQPGRSLRLSCAASGFTFSRYAMHWVRQAPGKGLEWVAVISYEGSNKYYADSVKGRFTISRNNSNNTLSLQMNSLRPDDTAVYYCVRSGGHYFDAFDLWGQGTMVTVSS VL: EIVLTQSPGTLSLSPGERATLSCRASQSVSRNYVAWYQQKPGQAPRLLIYGASSRATGIPDRFSGSGSGTDFTLTISRLEPEDFALYYCQQYGSSYTFGQGTKLEIKR |  | no binding
4 | COV_2008 (antibody, V domains shown, human IgG1) VH: QVRVVQSGAEVKNPGASVKVSCKVSGYTLTELSIHWVRQAPGNGLEWMGGFDPEDGETIYAQKFQGRVTMTEDTSTDTAYMELSSLRSDDTAVYYCATAGAITGTPRNFYYYYGMDVWGQGTTVTVSS VL: not shown | < 1 | 
5 | COV_3053 (antibody, V domains shown, human IgG1) VH: EVQLVESGGGLVQPGRSLRLSCTASGFTLGDYAMTWVRQAPGKGLEWLGIIRNKRYGETKQYAASVKGRFTFSRDDSKGIGYLQRLSLKIEDTGVYYCTREHIVRDDAFDVWGQGTTVTVSS VL: DIVMTQSPDSLAVSLGERATINCKSSQSVLYSSNNKNYIAWYQQRPGQPPKLLIYWTSTRASGVPDRFSGSGSGTDFALTISSLQAEDVAVYYCQQYYTIPRTFGQGTKVEIK |  | no binding
6 | COV_2205 (antibody, V domains shown, human IgG1) VH: EVQLVESGGGLVKPGGSLRLSCAASGFTFSDYYMIWIRQAPGEGLEWVSYISSRSSYTNYADSVKGRFTISRDNARNSLYLQMNSLRAEDTAVYYCARGQHDLLTGYYSWAYFDYWGQGTLVTVSS VL: not shown |  | no binding
7 | COV_1184 (antibody, V domains shown, human IgG1) VH: QVQLQQWGAGLLKPSETLSLTCAVYGGSFSGYYWSWIRQPPGKGLEWIGEINHSGNTTYNPSLKSRVTISVDTSKNQFSLKLSSVTAADTAVYYCARGLVITYYYDSSGKPFDPWGQGTLVTVSS VL: not shown |  | no binding
8 | COV_3088 (antibody, V domains shown, human IgG1) VH: EVQLVESGGGLVQPGGSLRLSCAASGFTFSSYDMHWVRQATGKGLEWVSAIGTAGDTYYPGSVKGRFTISRENAKNSLYLQMNSLRAGDTAVYYCARGSGWPPFFDYWGQGTLVTVSS VL: SYELTQPPSVSVAPGKTARITCGGNNIGSKSVHWYQQKPGQAPVLVIYYDSDRPSGIPERFSGSNSGNTATLTISRVEAGDEADYYCQVWDSSSDHHWVFGGGTKLTVL |  | no binding
9 | COV_3129 (antibody, V domains shown, human IgG1) VH: QVQLQQWGAGLLKPSDTLSLTCAANGGGSFSGYYLGYIRQSPGKGLEWIGEINHNGGTNYNPSLKSRVTISGDTSKNQFSLKLSSVTAADTAIYYCARSRDSSLGDAVWYEYWGQGTLITVSS VL: EIVLTQSPATLSLSPGERATLSCRASQSVDIYLAWYQQRPGQAPRLLISDASKRATGVPARFSGSGSGTDFTLTINSLEPEDFAIYYCQQRRDWPINFGQGTRLEIKR |  | no binding
10 | COV_1118 (antibody, V domains shown, human IgG1) VH: EVQLVESGGGLVKPGGSLRLSCAASGFSFSNYNMNWVRQAPGKGLEWVSYISSSSSYIYYADSVKGRFTISRDNAKNSLYLQMNSLRGEDTAVYSCAREASGAYYFDRSGYFDYWGQGTLVTVSP VL: not shown |  | no binding
11 | COV_1154 (antibody, V domains shown, human IgG1) VH: EVQLVESGGGLVKPGGSLRLSCAASGFRFSDYNMNWVRQAPGKGLEWVSYISSSSSYIYYADSVKGRFTISRDNAKNSLYLQMNSLRGEDTAVYSCAREASGAYYFDRSGYFDYWGQGTLVTVSP VL: DIQMTQSPSTLSASVGDRVTITCRASQSISSWLAWYQQKPGKAPNLLIYKASSLESGVPSRFSGSGSGTEFTLTISSLQPYDFATYYCQQYNSYPWAFGQGTKVEMKR |  | no binding
12 | COV_1136 (antibody, V domains shown, human IgG1) VH: EVQLVESGGGLVKPGGSLRLSCAASGFTFSDCNMNWVRQAPGKGLEWVSSISSRSSYIYYADSVKGRFTISRDNAKNSLYLQMNSLRAEDTAVYSCAREASGAYYFDRSGYFDYWGQGTLVTVSP VL: DIQMTQSPSTLSASVGDRVTITCRASQSISSWLAWYQQKPGKAPNLLIYKASSLESGVPSRFSGSGSGTEFTLTISSLQPDDFATYYCQQYNTYPWTFGQGTKVEIKR |  | no binding
13 | COV_2028 (antibody, V domains shown, human IgG1) VH: QVQLQESGPGLVKPSGTLSLTCVVSGGSISSSNWWSWVRQPPGKGLEWIGEIYHSGSTNYNPSLKSRVTISVDKSKNQFSLRLTSVTAADTAVYYCARGWNYDYWGQGTLVTVSS VL: QSALTQPASVSGSPGQSITIACTGTSSDVGSYNLVSWYQQHPGKAPKLMIYEVSKRPSGLSNRFSGSKSGNTASLTISGLQAEDEADYYCYSYAGSSTWVFGGGTKLTVL | 40.7 | 
14 | COV_1050 (antibody, V domains shown, human IgG1) VH: QVQLVESGGGVVQPGRSLRLSCAASRFTFSSYAMHWVRQAPGKGLEWVAVISFDGSNKYYADSVKGRFTIFRDNSKNTLSLQMNSLRTEDTAMYYCASPAGYYESLWGQGTLVTVSS VL: SYELTQPPSVSVSPGQTARVTCSGDALSKQYGFWYQQKPGQAPTLVIYKDTERPSGIPERFSGSGSGTTVTLTISGVQAEDEADYYCQSTDNSGRWVFGGGTKLTVLG |  | no binding
15 | COV_2032 (antibody, V domains shown, human IgG1) VH: EVQLVESGGGLVQPGGSLRLSCAASGFTFTTYWMHWVRQAPGKGLVWVSRIKTDGSSTNYADSVKGRFTISRDNAKNMLYLQMNSLRAEDTAVYYCAREGPVSIVYFDYWGQGTLVTVSS VL: not shown |  | no binding
16 | COV_1177 (antibody, V domains shown, human IgG1) VH: QVQLVESGGGVVQPGRSLRLSCAASGFTFSSYGMHWVRQAPGKGLEWVAVIWYDGSNKYYADSVKGRFTISRDNSKNTLYLQMNSLRAEDTAVYYCARDPLGAVAGYFDYWGQGTLVTVSS VL: SYVLTQPPSVSVAPGQTARITCGGNNIGSKSVHWYQQKPGQAPVLVVYDDSDRPSGIPERFSGSNSGNTATLTISRVEAGDEADYYCQVWDSSSDHHWVFGGGTKLTVLG |  | no binding
17 | COV_1145 (antibody, V domains shown, human IgG1) VH: QVQLVESGGGVVQPGRSLRLSCAASGFTFSSYGMHWVRQAPGKGLEWVAVIWYDGSNKYYADSVKGRFTISRDNSKNTLYLQMNSLRVEDTAVYYCAREGQLGATGLDCWGQGTLVSVSS VL: SYELTQPPSVSVSPGQTARITCSGDALPKKYAYWYQQKSGQAPVLVIYEDSKRPSGIPERFSGSSSGTMATLTISGAQVEDEADYYCYSTDNSGNHWVFGGGTKLTVLG |  | no binding
18 | COV_2215 (antibody, V domains shown, human IgG1) VH: EVQLVESGGGLVKPGGSLRLSCAASGFTFSHAWMSWVRQAPGKGLEWVGRIKSKTDGGTADYAAPVKGRFTISRDDSKNTLYLQMNSLKTEDTAVYYCATIRYYYDSSAYLNDAFDIWGQGTMVTVSS VL: SYELTQPPSVSVSPGQTARITCSGDALPKKYAYWYQQKSGQAPVLVIYEDSKRPSGIPERFSGSSSGTMATLTISGAQVEDEADYYCYSTDSSGNHRVFAGGTKLTVLG |  | no binding
19 | COV_1025 (antibody, V domains shown, human IgG1) VH: QVQLVESGGGVVQPGRSLRLSCAASGFTFNTYAMHWVRQAPGKGLEWVAIISYDGGNKYYADSMKGRFTISRDNSKNTLYLQMNSLRAEDTAVYYCARARTGNYYYGMDVWGQGTTVTVSS VL: not shown |  | no binding

Source: patent publication US20240101645A1 (HENRY M JACKSON FOUNDATION FOR THE ADVANCEMENT OF MILITARY …, published 2024)
